Measurements: patent US20180072816A1 (ADALTA, published 2018)
Residue numbers refer to the chain shown, from its start. Several values for one entry are separate records, joined by “and”; a condition that tells them apart may be missing. Equal values may be shown once.

Key:
human CXCR4 [1] = target: T1, human CXCR4 (human, UniProt P61073 1-352); assay: SPR (Biacore), immobilised CXCR4 lipoparticles
T1 construct: also called hCXCR4; Fusin

human CXCR4 [2] = target: T1, human CXCR4; assay: SPR (Biacore), biotinylated CXCR4 lipoparticles captured on streptavidin (bt. CXCR4), i-body injected
CCR5 (on lipoparticles) = target: T2, CCR5 (on lipoparticles) (UniProt P51681 1-352, limits assumed); assay: ELISA, single point, periplasmic fraction on CCR5 positive lipoparticles, 450 nm absorbance
T2 construct: whole, on cells; Whole receptor in lipoparticles; also called CCR5 positive lipoparticles; GPCR CCR5

human CXCR4 [3] = target: T1, human CXCR4; assay: SPR (Biacore), biotinylated CXCR4 lipoparticles captured on streptavidin (bt. CXCR4), i-body injected; remark: listed apart in the source
human CXCR4 [4] = target: T1, human CXCR4; assay: not told
human CXCR4 [5] = target: T1, human CXCR4; assay: cell-based or functional assay
human CXCR4 [6] = target: T1, human CXCR4; assay: cell-based or functional assay; remark: listed apart in the source
human CXCR4 [7] = target: T1, human CXCR4; assay: phage display selection on hCXCR4 lipoparticles or CXCR4 positive cells
human CXCR4 [8] = target: T1, human CXCR4; assay: SPR
human serum albumin [9] = target: T3, human serum albumin (human, UniProt P02768 25-609); assay: SPR
T3 construct: also called HSA; HAS

human CXCR4 [10] = target: T1, human CXCR4; assay: SPR (Biacore)
human serum albumin [11] = target: T3, human serum albumin; assay: SPR (Biacore), binding to HSA by the SA21 peptide
human CXCR4 [12] = target: T1, human CXCR4; assay: SPR (Biacore), biotinylated CXCR4 lipoparticles (bt.CXCR4), three successive injections in one cycle
human CXCR4 [13] = target: T1, human CXCR4; assay: SPR (Biacore), immobilised CXCR4 lipoparticles; remark: listed apart in the source
human CXCR4 [14] = target: T1, human CXCR4; assay: SPR (Biacore), biotinylated CXCR4 lipoparticles captured on streptavidin (bt. CXCR4), i-body injected; remark: listed apart in the source
human CXCR4 [15] = target: T1, human CXCR4; assay: SPR (Biacore), CXCR4 expressed on lipoparticles
human CXCR4 [16] = target: T1, human CXCR4; assay: cell-based or functional assay; remark: listed apart in the source
human CXCR4 [17] = target: T1, human CXCR4; assay: off-rate, CXCR4 expressed on lipoparticles
human CXCR4 [18] = target: T1, human CXCR4; assay: not told (affinity for CXCR4); parent i-body before affinity maturation
human CXCR4 [19] = target: T1, human CXCR4; assay: flow cytometry on Ramos cells, anti-His-PE; i-body alone or with an excess of SDF-1, MAb 12G5 or AMD3100 [top panel]
human CXCR4 [20] = target: T1, human CXCR4; assay: flow cytometry on Ramos cells, anti-His-PE; i-body alone or with an excess of SDF-1, MAb 12G5 or AMD3100 [middle panel]

T1 sequence (P61073 whole entry): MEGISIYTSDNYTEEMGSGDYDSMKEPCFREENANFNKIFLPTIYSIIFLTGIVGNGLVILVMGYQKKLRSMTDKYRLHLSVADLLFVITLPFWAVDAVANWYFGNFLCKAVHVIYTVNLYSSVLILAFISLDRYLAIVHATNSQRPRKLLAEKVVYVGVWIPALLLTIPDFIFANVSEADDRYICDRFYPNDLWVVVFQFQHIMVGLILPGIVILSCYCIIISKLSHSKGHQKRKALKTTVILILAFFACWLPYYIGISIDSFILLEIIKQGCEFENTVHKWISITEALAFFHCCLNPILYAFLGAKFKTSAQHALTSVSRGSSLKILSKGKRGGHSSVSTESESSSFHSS
T2 sequence (P51681 whole entry): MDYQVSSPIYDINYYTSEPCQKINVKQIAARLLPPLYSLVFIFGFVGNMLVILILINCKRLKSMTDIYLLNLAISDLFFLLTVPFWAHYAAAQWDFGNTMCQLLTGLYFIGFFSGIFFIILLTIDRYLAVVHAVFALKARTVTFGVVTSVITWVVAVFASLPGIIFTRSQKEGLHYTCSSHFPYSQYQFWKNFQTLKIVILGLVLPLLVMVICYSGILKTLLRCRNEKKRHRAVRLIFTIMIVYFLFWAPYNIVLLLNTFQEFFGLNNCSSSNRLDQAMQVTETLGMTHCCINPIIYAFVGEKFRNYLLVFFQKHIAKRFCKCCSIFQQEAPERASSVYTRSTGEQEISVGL

B1: ADCX-668 (designed binder)
chain: LQVDIVPSQGEISVGESKFFLCQVAGTIWYEQISWFTPNGEKLTPNQQRISVVWNDDSSSTLTIYNANIDDAGIYKCVVWTRPVTSSMHEATVNVKIFQ
notes: i-body (human NCAM1 domain 1 scaffold)
Work on B1 yielded a Kd (human CXCR4 [1]) of 42000 nM and a Kd (human CXCR4 [2]) of 42300 nM.

B2: ADCX-272 (designed binder)
chain: LQVDIVPSQGEISVGESKFFLCQVAGHLEVRSISWFSPNGEKLTPNQQRISVVWNDDSSSTLTIYNANIDDAGIYKCVVEQRGRSQSYFSEATVNVKIFQ
notes: as for B1
For B2, the Kd (human CXCR4 [1]) was 1600 nM, the binding result (CCR5 (on lipoparticles)) was “no binding” and the Kd (human CXCR4 [3]) was 1620 nM.

B3: 21H5 control i-body (designed binder)
chain: LQVDIVPSQGEISVGESKFFLCQVAGDAKDKDISWFSPNGEKLTPNQQRISVVWNDDSSSTLTIYNANIDDAGIYKCVVTGSDAMSNYSYPISESEATVNVKIFQ
notes: Control i-body used as isotype control; also called negative control i-body; isotype control i-body
B3 was tested, and the binding result (human CXCR4 [4]) was “no binding”, the “cAMP inhibition IC50” value (human CXCR4 [5]) was greater than 10000 nM and the “Calcium Inhibition EC50” value (human CXCR4 [6]) was greater than 10000 nM.

B4: ADCX-6 (designed binder)
chain: LQVDIVPSQGEISVGESKFFLCQVAGLTSLEGISWFSPNGEKLTPNQQRISVVWNDDSSSTLTIYNANIDDAGIYKCVVEDHPQYSKMEEATVNVKIFQ
notes: i-body (human NCAM1 domain 1 scaffold); also called ACDX-6
B4: binds (human CXCR4 [7]).

B5: AM3-114-Im7-FH-SA21 dual specificity i-body (designed binder)
chain: MALQVDIVPSQGEISVGESKFFLCQVAGSLSGIRISWFSPNGEKLTPNQQRISVVWNDDSSSTLTIYNANIDDAGIYKCVVWRTGGYRHRYLVLGEATVNVKIFQGGGGSELKNSISDYTEAEFVQLLKEIEKENVAATDDVLDVLLEHFVKITEHPDGTDLIYYPSDNRDDSPEGIVKEIKEWRAANGKPGFKQGGGGGSDYKDDDDKGSGHHHHHHHHGGGGSRLIEDICLPRWGCLWEDD
B5 was tested, and the Kd (human CXCR4 [8]) was 5 to 10 nM, the Kd (human serum albumin [9]) was roughly 500 nM and the Kd (human CXCR4 [10]) was 9 nM. It also gave a Kd (human serum albumin [11]) of 518 nM, a Kd (human CXCR4 [12]) of 9.2 nM and a koff (human CXCR4 [12]) of 0.002 s⁻¹. It also gave a kon (human CXCR4 [12]) of 210000 M⁻¹ s⁻¹.

B6: ADCX-306 (designed binder)
chain: LQVDIVPSQGEISVGESKFFLCQVAGFQEWVNWFSPNGEKLTPNQQRISVVWNDDSSSTLTIYNANIDDAGIYKCVVTMPHTLNNLDVRTEATVNVKIFQ
notes: as for B1
For B6, the Kd (human CXCR4 [13]) was 22500 nM, the Kd (human CXCR4 [1]) was 22000 nM and the Kd (human CXCR4 [14]) was 22500 nM.

B7: ADCX-54 (designed binder)
chain: LQVDIVPSQGEISVGESKFFLCQVAGRTIIVEISWFSPNGEKLTPNQQRISVVWNDDSSSTLTIYNANIDDAGIYKCVVVLSIRGKWELEATVNVKIFQ
notes: as for B1
B7: binds (human CXCR4 [7]).

B8: AM3-920 (designed binder)
chain: LQVDIVPSQGEISVGESKFFLCQVAGSGSGIRISWFSPNGEKLTPNQQRISVVWNDDSSSTLTIYNANIDDAGIYKCVVWRTGGYRHRYLVLGEATVNVKIFQ
For B8, the Kd (human CXCR4 [15]) was 7.18 nM and 5.87 nM and the kon (human CXCR4 [15]) was 1.12e+06 M⁻¹ s⁻¹ and 1.26e+06 M⁻¹ s⁻¹.

B9: AM3-466 (designed binder)
chain: B8 chain with G30H, I31Q, G84A, Y89A
For B9, the “IC50 (nM) in β-Arrestin BRET assay (Antagonist mode in the presence of 100 nM SDF-1)” value (“IC50 (nM) in β-Arrestin BRET assay” for short) (human CXCR4 [16]) was 6320 nM, the Kd (human CXCR4 [15]) was 13.8 nM and 15.7 nM and the kon (human CXCR4 [15]) was 465000 M⁻¹ s⁻¹ and 426000 M⁻¹ s⁻¹.

B10: AM4-1121 (designed binder)
chain: B8 chain with G28K, W80Y, V91R
B10 was tested, and the “cAMP inhibition IC50” value (human CXCR4 [5]) was 125 nM, the “IC50 (nM) in β-Arrestin BRET assay” value (human CXCR4 [16]) was 796 nM and the koff (human CXCR4 [17]) was 0.0115 s⁻¹. The Kd (human CXCR4 [15]) was 7.21 nM and 6.7 nM and the kon (human CXCR4 [15]) was 1.29e+06 M⁻¹ s⁻¹ and 1.42e+06 M⁻¹ s⁻¹.

B11: AM5-245 (designed binder)
chain: B8 chain with V24A, G30H, Y89A
B11 was tested, and the Kd (human CXCR4 [15]) was 14.9 nM and 15.9 nM and the kon (human CXCR4 [15]) was 813000 M⁻¹ s⁻¹ and 771000 M⁻¹ s⁻¹.

B12: AM3-523 (designed binder)
chain: B8 chain with G30H, I31M, T82V, Y89A
For B12, the “cAMP inhibition IC50” value (human CXCR4 [5]) was 225 nM, the “IC50 (nM) in β-Arrestin BRET assay” value (human CXCR4 [16]) was 12700 nM and the Kd (human CXCR4 [15]) was 8.53 nM and 9.47 nM. The kon (human CXCR4 [15]) was 1e+06 M⁻¹ s⁻¹ and 965000 M⁻¹ s⁻¹.

B13: AM4-746 (designed binder)
chain: B8 chain with G28K, G30N, W80Y, V91K
With B13 the “cAMP inhibition IC50” value (human CXCR4 [5]) was 115 nM, the “IC50 (nM) in β-Arrestin BRET assay” value (human CXCR4 [16]) was 741 nM and the Kd (human CXCR4 [15]) was 5.36 nM. For the same binder, the kon (human CXCR4 [15]) was 2.5e+06 M⁻¹ s⁻¹.

B14: AM4-661 (designed binder)
chain: B8 chain with G28K, G30D, I31F, W80Y
For B14, the “IC50 (nM) in β-Arrestin BRET assay” value (human CXCR4 [16]) was 1540 nM, the Kd (human CXCR4 [15]) was 9.53 nM and 9.66 nM and the kon (human CXCR4 [15]) was 966000 M⁻¹ s⁻¹ and 983000 M⁻¹ s⁻¹.

B15: AM4-613 (designed binder)
chain: B8 chain with G28K, G30D, I31V
With B15 the “IC50 (nM) in β-Arrestin BRET assay” value (human CXCR4 [16]) was 1830 nM, the Kd (human CXCR4 [15]) was 7.83 nM and the kon (human CXCR4 [15]) was 1.33e+06 M⁻¹ s⁻¹.

B16: ADCX-99 (designed binder)
chain: B8 chain with G30D, W80Y, Y89A
notes: i-body (human NCAM1 domain 1 scaffold); also called wild-type i-body ADCX-99
With B16 the Kd (human CXCR4 [8]) was 643 nM, the Kd (human CXCR4 [13]) was ~600 nM and 623 nM and the Kd (human CXCR4 [1]) was 700 nM. The Kd (human CXCR4 [18]) was greater than 700 nM and the binding result (CCR5 (on lipoparticles)) was “no binding”.

B17: AM3-114-6H (designed binder)
chain: EAEALQVDIVPYQGEISVGESKFFLCQVAGSLSGIRISWFSPNGEKLTPNQQRISVVWNDDSSSTLTIYNANIDDAGIYKCVVWRTGGYRHRYLVLGEATVNVKIFQ
notes: Construct with N-terminal EAEA and 6H tag, detected with anti-His-PE; not shown: 6H tag (six histidines by the label)
B17: binds (human CXCR4 [19]).

B18: AM4-272-6H (designed binder)
chain: B17 chain with Y12S, L32Y, G34D, I35Y, W84Y, T86I
notes: as for B17
B18: binds (human CXCR4 [20]).
